# Experimental data as given in the DeepSol protein solubility set.
# Experiment: soluble on expression in E. coli; label from the status in PepcDB or PDB records
row,Sequence,soluble on expression in E. coli
1,MSLKAVQQHAFGGPEVLSYEDAPMPVLQAGEVLVQVYAVGVNPPDSYLRDGYQQLPPEWRPEVRFPLILGTDLSGVVVARADDVREVAVGDEVYAMARFPEGAAGGSRAYAEYVSVPVSDLARKPLTLSHQQAAAVPMSLLTAWQFMIDPGHEVANPLQPGPHRPVPLAGKRVLVNGAAGGVGHFAVQLAKWQGAEVIAVAAGCHEAFLRQLGADSVIDYTTTAVEETVRDLDLVIDAPGGPASGRFLRTLRPGGALYPIFPLGFAGAEEARQRGVTVSTTQVRSSGAQLARLADLLDAGVIRVAIDSVFPLAQAQMAHERAAQGHLEGKIVLSVMDSEGHHHHHH,soluble
2,MGSDKIHHHHHHMRTYTKEIQAIIDNVEKVIIGKENVITQSLAALLAGGHVLLEDVPGVGKTMLVRAFSRSIGLTFKRVQFTPDLLPSDLTGVSMYNQKTSQFEYRPGPLMGNIVLADEINRTSPKTQSALLEGMAEANVTVDGEIHTLPNPFFVMATQNPIEHEGTYPLPEAQLDRFLIKVKMGYPDFQQEMKLLTRFERDEPIETLESVITRDELLRMKEDVKAVHVSQPVKKYIVHLVQATRTHASLYLGASPRSSIALMKVAQAWAYMEGRSFVLPDDVKELLTPVLSHRLILTADARYHGQTAERILEQVKKEVAVPIQQDVESL,not soluble
3,MPPKKQQEVVKVQWGRPGNNLKTGIVGMPNVGKSTFFRAITKSVLGNPANYPYATIDPEEAKVAVPDERFDWLCEAYKPKSRVPAFLTVFDIAGLTKGASTGVGLGNAFLSHVRAVDAIYQVVRAFDDAEIIHVEGDVDPIRDLSIIVDELLIKDAEFVEKHLEGLRKITSRGANTLEMKAKKEEQAIIEKVYQYLTETKQPIRKGDWSNREVEIINSLYLLTAKPVIYLVNMSERDFLRQKNKYLPKIKKWIDENSPGDTLIPMSVAFEERLTNFTEEEAIEECKKLNTKSMLPKIIVTGYNALNLINYFTCGEDEVRSWTIRKGTKAPQAAGVIHTDFEKAFVVGEIMHYQDLFDYKTENACRAAGKYLTKGKEYVMESGDIAHWKAGKR,soluble
4,MNDELFNLIERLANLLRQETRLEGQSLGLQPIQQEALYYLSTCNRYSDTTLAVTEFLGLTKGTVSQSLKILESKSLIAKVKDKKDKRITHLKVTETGREFLMKTCPPQKFTDAIAGLSVDEEFETKTLLKKVLSNYQLATGRTAFGVCKHCKFNRKTSDGILCDLTKEALSSDDIMLICREYVV,not soluble
5,MGSSHHHHHHSSGLVPRGSHMASMTEQRTKYADSILTTKSPYEATETIRIRLSQVKLLNKDFYLLFKELANLKRNYAQQLRKIIAENEDITKILNAQMIESNVLTPQEMSAFRFNSLGELRNVWDTVIEELKSDLKSSTEYYNTLDQQVVRELKESVENNTSWRESKDLHSKLSKNAASIEHYSKNNENSSHLEEARRQWDQQSPYLFELFETIDYNRLDTLKNCMLRFQTSFSDYLLNTTKECETVMTKFLAFEPQSEIDRFAKDASQYNFQLSSSSKEVVPNNAS,soluble
6,MAQSKESPDEAKQDEIIFNIGDTINDYEIVSKIDEGGFGQVFKVTKDHKTFYAMKLESNFQVGGSAIKLEINVLSQLPKNTVFPELICGGKRPRYHFLVLELLGDNLKALKAQSPNPSVFSDGTWSRIGIQCLYAMKMMHDSGFVHRDIKPSNFAIGYSTASESRSRRVLLFDFGLARKFVKKEKNLAPIVTKKESKISKSKTLPSKGPSTKSKDLKPGRSKPILNRKAEQMKIKKNFNMLIPPKSIDQSQRTAEEKVDDEEFTFRRARPHTDFRGTFQYASPNAHLQLELGRHDDIWSLMYMVAEFFVELPWTSNEEIALEELKNQSSILRLFSDGKNIVSSWIHDRIFSDKNPSRLTPEMRGQLDEIDKNLKSCNYYSSPKYDIVYQFFKDSMTKAKVTWTTPYDWETIGKSSEDFSKKSNGKRAVWENPGAFFKKGRWDALPLPLQSPHISIRKSSSKHPKPSAKGSKKAVQARIQNFSKEDSVEADEAPTPMLKSTKKDGMGGQKGGLKGSIE,not soluble
7,MGSDKIHHHHHHMVYTTPWNRKIEFGRTMVMGIINVTPDSFFADSRKQSVLEAVETAKKMIEEGADIIDVGGMSTRPGSDPVDEEEELNRVIPVIRAIRSITDVPISVDTYRWRVALKALEAGADIVNDISGYQFEPDIVRVVSENNVPYVLMHIKGTPKTMQENPHYEDVVKEIKEYFTEKIEYLKEKGVNQIVLDPGIGFGKRYEDNLEILRRIDEFKELKLPILIGASRKSFIGITLGNVPPEERLEGTLAVTAYCTMKGVDIIRVHDVLPNKRVIRMMEAILWQRL,not soluble
8,MAQGNPLTPEEIELLHAGDEENDNTDTLMVIRVPNDGSSATAISIPRDTYVHDENVGNLKINGVYRAYKNRKASELVNSGESDQKHIDELSKEAGRKALISSISDLTGVTVDHYAEVGLLGFVLLTNAVGGVDVCLNNDVYDEFSGADFKAGQQTLRDGQALAFVRQRHGLPRGDLDRIVRQQAFMASLVAKVLSSGTLTNPSKLSDLGEAVSRSVVIDKNWDVMSFANQLQNLAGGNVKFNTIPVTSIDGVGDYGESVVTVDKNQVHQFFDRLLNGNNGEETPTSDSEAPAENPHTSTTIDVLNATSTTGLASQVAGHLSAKHYTIGNIGNALEGMYHESQIVAADPNNEAVKAIAAELGGLPITQRNDLEHHHHHH,soluble
9,MGSDKIHHHHHHMSFPTIPDITPTISINRSDVINLLLASIAFEELGLAHIINAEAEKIQYILGTLSEQVPTEPPTQDDLIEINKSVNQTLRTVIKNQMLLQFKLEDLIVENPLPSITIKKYVSGDGGVTWYDADSPPGPTIDPEQVPMFRFVITNTGNVILTGVTVTDSVLGLISTGGILPPGAFFEEYRSGEYLGGDQSNTATVIGYYLDQQVEDSDVAYYTEPT,not soluble
10,SLSDTQEPVKLRIVHFNDVYNVFSISGGLGGGAAPFCTGLREKRGPDGLVLFSGDIFSPSPLSEASKGRQMAELLNYLDVHTSCYGNHDLDFGWEWLELLAGTTKCKWVMSNARSKIGGGVLANAQRYRIFEWGTTQRVVVGIMALIEEDWIDTLNAPDQEEIVYQDFVEAGREMVALFRRRGCDLVIALTHMRWNNDEKLAREVDGIDLILGGHDHAYVTKLVNGTAVIKSGSDFREFSAITLTPKLHLREQGTSHATGFSADHDSLAADGKNGYPVAFSGSTGGVAEVDGLCRQHGDSSHAVKRAGVCECLGRTQPVRQTKPEVVEGIHTEETQPAKLWSSGRWWLSCEKVCVSADRFEADDSVMEMLVRYQTTYGNSQGCVLGAFPVLLETRFCEVRTRECNSGNWLADLMREYYGVDVALYNSGGIRSDCVFAEGEVVTSETLHAILSGTRQLDVIAVPGNLFKSILETSVSRWPQLEGRFLQVSGLRFVFEGSARVGERVLADEIQFRNRETGDWEPLVPDRVYSVATATFLARGGDGLSVLVDCPPLDTPQRNIRDLSELARLWFCRQHRKCGFEDVEEIPPRECEWIDR,not soluble
11,MSLYQHGYHAGNFADVIKHITLTRLLAYLTHKDKPLFYLETHSGRGIYDLKDKQSLKTEEYKEGINPVWLDRENLPSLFLEYISVIKQINLNSTLSYYPGSPYFAINQLRSQDRLYLCELHPTEYNFLLKLPHFNKKVYVNHTDGVSKLNALLPPPEKRGLIFIDPSYERKEEYKEIPYAIKNAYSKFSTGLYCVWYPVVNKAWTEQFLRKMREISSKSVRIELHLNPLINEGMTGCGLWIINPPYTFPSEIKLVLETLTTYFNPGSSSYMIESGSKLCHGLKGIITITTDPNSSSVDKLAAALEHHHHHH,soluble
12,MRFIHALLLAGIAHSAYASEKLTFKTDLEKLEREKAAQIGVAIVDPQGEIVAGHRMAQRFAMCSTFKFPLAALVFERIDSGTERGDRKLSYGPDMIVEWSPATERFLASGHMTVLEAAQAAVQLSDNGATNLLLREIGGPAAMTQYFRKIGDSVSRLDRKEPEMGDNTPGDLRDTTTPIAMARTVAKVLYGGALTSTSTHTIERWLIGNQTGDATLRAGFPKDWVVGEKTGTCANGGRNDIGFFKAQERDYAVAVYTTAPKLSAVERDELVASVGQVITQLILSTDK,soluble
13,MTTHQFEHPLNEKTRIYLRVEALLNQMERASTFSDGIQHQLFFRSLFDMLEIFEQIQLKSELAKDMEKQRLTYRSWLHVEGVDQEMLNSLLTEVDEVHRDLMSAERFGQSLKEDRFLSAIRQRFNLPGGSCCFDLPALHYWLHLPLDRKMRDAQQWMQTVTPLSNALKLWLKLTRETGHYRSRMASNGFYQSDAEDANILRLAIPLEYGVYPMISGHKNRFAIKFIDFHSGQACTQDIAFDLAVCC,not soluble
14,MVTAREVGRIGLRKLLQRIGIVAESMTPLATDPVEVTQLLDARWYDERLRALADELGRDPDSVRAEAAGYLREMAASLDERAVQAWRGFSRWLMRAYDVLVDEDQITQLRKLDRKATLAFAFSHRSYLDGMLLPEAILANRLSPALTFGGANLNFFPMGAWAKRTGAIFIRRQTKDIPVYRFVLRAYAAQLVQNHVNLTWSIEGGRTRTGKLRPPVFGILRYITDAVDEIDGPEVYLVPTSIVYDQLHEVEAMTTEAYGAVKRPEDLRFLVRLARQQGERLGRAYLDFGEPLPLRKRLQEMRADKSGTGSEIERIALDVEHRINRATPVTPTAVVSLALLGADRSLSISEVLATVRPLASYIAARNWAVAGAADLTNRSTIRWTLHQMVASGVVSVYDAGTEAVWGIGEDQHLVAAFYRNTAIHILVDRAVAELALLAAAETTTNGSVSPATVRDEALSLRDLLKFEFLFSGRAQFEKDLANEVLLIGSVVDTSKPAAAADVWRLLESADVLLAHLVLRPFLDAYHIVADRLAAHEDDSFDEEGFLAECLQVGKQWELQRNIASAESRSMELFKTALRLARHRELVDGADATDIAKRRQQFADEIATATRRVNTIAELARRQLEHHHHHH,not soluble
15,MSLPRLGIILHGVTGRMGYNQHLVRSILAIRDRGGITLQSGERLEIDPIIVGRNRDKMEQLAKRHDIARWSTDLDAALADPNDQIFFDAGTTLMRAELIGRALDAGKHVYCEKPISDDLRTAVKLARKARASGLKHGVVQDKLFLPGLRKLALLRDSGFFGKILSVRGEFGYWVFEGDWGVPAQRPSWNYRKKDGGGIILDMLCHWRYVLDNLFGEVKAVSCLGATHIPSRIDEQGRAYDCDTDDAAYATFELEGGIVAHINSSWAVRVRRDDLVTFQVDGTHGSAVAGLTKCWTQHRVNTPKPVWNPDQPQTIDFYRTWDEVPDTQAFDNGFKAQWEMFLRHVAEDGPWPHGLEAGAKGVQLAELGLKSWAERRWLDVPELEGHHHHHH,not soluble
16,MSLTDQKPVPVFDGHNDVLLRLWRSGNTSPETLLIEGDTVGHIDLPRARKGGLAGGLCAIYVPSPSMEKDANGDFSTPTEADALKATLGMAALLFRAEKQSAGALKVCRTAADIRSAMAEGAFASVFHIEGAEAIGDDLDALHVLHEAGLRTLGPVWSRPNIFAYGVPFRFPSTPDIGPGLTDTGKRLVKTCNELKIMVDLSHMNEQGFWDIAKISDAPLVASHSNAYALCNHSRNLTEGHHHHHH,soluble
17,MIKKLDVVAAIIECDGKILLAQRPAHADQAGLWEFAGGKVEPGETQPQALIRELREELGIDATPGVYIASHQRDVSGRRIHLHAWHVPAFNGLIRALEHQALAWCTPEEALEYPLAPADIPLLQAFIALRDARLTDSC,not soluble
18,MLIILTGLPSVGKSTFSKAFSKKMAEKNIDNIILGTDLIRESFPVWKESYEEFIRDSNNYLIKEALENKFSVIVDDTNYYNSKRRDLMNIAKECDTNYVTIYLKAPLNLLLKRNIERGQKIPNEVIKNMYEKFDTPGTKYAWDLPDITVDTTEKIDYNEILNEILEINENKNLKIEEDKIPKSEPVESDLVKIDSLTRNIVGNLIKTGKIDKKDIKLLSEIRKSFLKDCKKIESEKLDFEKIEKDFLDYLNKNLK,not soluble
19,GSGMRFYVKDHRNKAMINLHIQKDNPKIVHAFDMEDLGDKAVYCRCWRSKKFPFCDGAHTKHNEETGDNVGPLIIKKKET,soluble
